For this assay, the target named is T1, Saccharomyces cerevisiae Rat1-Rai1 complex (Saccharomyces cerevisiae, UniProt Q02792 1-981; P53063 1-387).
T1 sequence (looked up) 1: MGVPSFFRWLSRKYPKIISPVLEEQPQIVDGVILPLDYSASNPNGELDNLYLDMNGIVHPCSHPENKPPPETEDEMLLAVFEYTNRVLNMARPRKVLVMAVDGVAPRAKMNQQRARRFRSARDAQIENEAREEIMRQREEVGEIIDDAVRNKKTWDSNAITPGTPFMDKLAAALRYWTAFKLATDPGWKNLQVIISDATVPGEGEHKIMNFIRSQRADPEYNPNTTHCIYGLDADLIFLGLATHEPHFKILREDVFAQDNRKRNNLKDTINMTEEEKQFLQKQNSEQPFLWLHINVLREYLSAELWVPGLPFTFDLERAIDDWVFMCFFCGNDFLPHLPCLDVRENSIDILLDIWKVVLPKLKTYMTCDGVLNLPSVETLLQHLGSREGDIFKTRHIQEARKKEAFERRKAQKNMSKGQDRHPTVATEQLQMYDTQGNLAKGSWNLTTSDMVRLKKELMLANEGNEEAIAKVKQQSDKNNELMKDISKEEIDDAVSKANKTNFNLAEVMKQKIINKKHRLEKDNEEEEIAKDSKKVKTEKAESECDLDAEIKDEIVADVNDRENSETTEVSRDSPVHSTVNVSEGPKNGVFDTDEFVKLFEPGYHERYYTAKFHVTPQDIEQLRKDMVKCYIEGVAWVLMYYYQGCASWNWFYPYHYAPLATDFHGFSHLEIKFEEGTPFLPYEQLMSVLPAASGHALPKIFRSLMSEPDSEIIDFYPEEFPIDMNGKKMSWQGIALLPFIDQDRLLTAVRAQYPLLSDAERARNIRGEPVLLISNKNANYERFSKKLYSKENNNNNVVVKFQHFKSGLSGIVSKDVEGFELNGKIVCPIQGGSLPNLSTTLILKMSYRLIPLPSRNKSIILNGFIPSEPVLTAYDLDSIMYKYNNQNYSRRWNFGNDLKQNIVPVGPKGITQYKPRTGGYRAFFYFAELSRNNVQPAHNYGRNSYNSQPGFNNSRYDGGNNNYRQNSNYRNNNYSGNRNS
T1 sequence (looked up) 2: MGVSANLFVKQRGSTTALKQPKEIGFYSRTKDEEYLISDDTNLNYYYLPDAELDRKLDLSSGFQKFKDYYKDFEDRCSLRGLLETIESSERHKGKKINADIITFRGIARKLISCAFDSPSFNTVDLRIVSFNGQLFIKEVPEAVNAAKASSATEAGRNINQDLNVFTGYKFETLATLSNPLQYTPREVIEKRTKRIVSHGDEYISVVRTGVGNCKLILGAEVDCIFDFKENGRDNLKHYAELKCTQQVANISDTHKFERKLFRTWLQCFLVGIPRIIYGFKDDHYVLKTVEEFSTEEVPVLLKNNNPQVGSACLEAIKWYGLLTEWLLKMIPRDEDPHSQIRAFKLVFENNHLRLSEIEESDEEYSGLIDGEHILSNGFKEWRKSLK
In words: pull-down.

With SAKDPSRLNKNVDEDNIIPTYEVGDGDDDD (domain or fragment, Saccharomyces cerevisiae, UniProt Q05543 243-272, looked up) [N-terminal 6×His-MBP tagged S. cerevisiae Rtt103 RIS (243-272) wild-type], the binding result is given as “binds”.

(Values after PMC11972402 (Nature Communications, 2025).)
